Measured values published in patent US20110207796A1, “ALPHA-SYNUCLEIN KINASE” (Elan Pharma International Limited, priority 2008, published 2011).

B1: Over-Expressed PLK2 (protein, UniProt Q9NYY3 1-685, looked up)
Serine/threonine-protein …: MELLRTITYQPAASTKMCEQALGKGCGADSKKKRPPQPPEESQPPQSQAQVPPAAPHHHHHHSHSGPEISRIIVDPTTGKRYCRGKVLGKGGFAKCYEMTDLTNNKVYAAKIIPHSRVAKPHQREKIDKEIELHRILHHKHVVQFYHYFEDKENIYILLEYCSRRSMAHILKARKVLTEPEVRYYLRQIVSGLKYLHEQEILHRDLKLGNFFINEAMELKVGDFGLAARLEPLEHRRRTICGTPNYLSPEVLNKQGHGCESDIWALGCVMYTMLLGRPPFETTNLKETYRCIREARYTMPSSLLAPAKHLIASMLSKNPEDRPSLDDIIRHDFFLQGFTPDRLSSSCCHTVPDFHLSSPAKNFFKKAAAALFGGKKDKARYIDTHNRVSKEDEDIYKLRHDLKKTSITQQPSKHRTDEELQPPTTTVARSGTPAVENKQQIGDAIRMIVRGTLGSCSSSSECLEDSTMGSVADTVARVLRGCLENMPEADCIPKEQLSTSFQWVTKWVDYSNKYGFGYQLSDHTVGVLFNNGAHMSLLPDKKTVHYYAELGQCSVFPATDAPEQFISQVTVLKYFSHYMEENLMDGGDLPSVTDIRRPRLYLLQWLKSDKALMMLFNDGTFQVNFYHDHTKIIICSQNEEYLLTYINEDRISTTFRLTTLLMSGCSSELKNRMEYALNMLLQRCN
B2: Over-Expressed PLK3 (protein, UniProt Q9H4B4 1-646, looked up)
Serine/threonine-protein …: MEPAAGFLSPRPFQRAAAAPAPPAGPGPPPSALRGPELEMLAGLPTSDPGRLITDPRSGRTYLKGRLLGKGGFARCYEATDTETGSAYAVKVIPQSRVAKPHQREKILNEIELHRDLQHRHIVRFSHHFEDADNIYIFLELCSRKSLAHIWKARHTLLEPEVRYYLRQILSGLKYLHQRGILHRDLKLGNFFITENMELKVGDFGLAARLEPPEQRKKTICGTPNYVAPEVLLRQGHGPEADVWSLGCVMYTLLCGSPPFETADLKETYRCIKQVHYTLPASLSLPARQLLAAILRASPRDRPSIDQILRHDFFTKGYTPDRLPISSCVTVPDLTPPNPARSLFAKVTKSLFGRKKKSKNHAQERDEVSGLVSGLMRTSVGHQDARPEAPAASGPAPVSLVETAPEDSSPRGTLASSGDGFEEGLTVATVVESALCALRNCIAFMPPAEQNPAPLAQPEPLVWVSKWVDYSNKFGFGYQLSSRRVAVLFNDGTHMALSANRKTVHYNPTSTKHFSFSVGAVPRALQPQLGILRYFASYMEQHLMKGGDLPSVEEVEVPAPPLLLQWVKTDQALLMLFSDGTVQVNFYGDHTKLILSGWEPLLVTFVARNRSACTYLASHLRQLGCSPDLRQRLRYALRLLRDRSPA
B3: Over-Expressed PLK4 (protein, UniProt O00444 1-970, looked up)
Serine/threonine-protein …: MATCIGEKIEDFKVGNLLGKGSFAGVYRAESIHTGLEVAIKMIDKKAMYKAGMVQRVQNEVKIHCQLKHPSILELYNYFEDSNYVYLVLEMCHNGEMNRYLKNRVKPFSENEARHFMHQIITGMLYLHSHGILHRDLTLSNLLLTRNMNIKIADFGLATQLKMPHEKHYTLCGTPNYISPEIATRSAHGLESDVWSLGCMFYTLLIGRPPFDTDTVKNTLNKVVLADYEMPSFLSIEAKDLIHQLLRRNPADRLSLSSVLDHPFMSRNSSTKSKDLGTVEDSIDSGHATISTAITASSSTSISGSLFDKRRLLIGQPLPNKMTVFPKNKSSTDFSSSGDGNSFYTQWGNQETSNSGRGRVIQDAEERPHSRYLRRAYSSDRSGTSNSQSQAKTYTMERCHSAEMLSVSKRSGGGENEERYSPTDNNANIFNFFKEKTSSSSGSFERPDNNQALSNHLCPGKTPFPFADPTPQTETVQQWFGNLQINAHLRKTTEYDSISPNRDFQGHPDLQKDTSKNAWTDTKVKKNSDASDNAHSVKQQNTMKYMTALHSKPEIIQQECVFGSDPLSEQSKTRGMEPPWGYQNRTLRSITSPLVAHRLKPIRQKTKKAVVSILDSEEVCVELVKEYASQEYVKEVLQISSDGNTITIYYPNGGRGFPLADRPPSPTDNISRYSFDNLPEKYWRKYQYASRFVQLVRSKSPKITYFTRYAKCILMENSPGADFEVWFYDGVKIHKTEDFIQVIEKTGKSYTLKSESEVNSLKEEIKMYMDHANEGHRICLALESIISEEERKTRSAPFFPIIIGRKPGSTSSPKALSPPPSVDSNYPTRERASFNRMVMHSAASPTQAPILNPSMVTNEGLGLTTTASGTDISSNSLKDCLPKSAQLLKSVFVKNVGWATQLTSGAVWVQFNDGSQLVVQAGVSSISYTSPNGQTTRYGENEKLPDYIKQKLQCLSSILLMFSNPTPNFH

Tested on: synuclein phosphorylation
Assay: overexpression of PLK family members with WT-synuclein in HEK-293 cells, phospho-synuclein ELISA
Type: cell-based, human
Conditions: for Proportion of total synuclein that is phoshorylated at ser-129: 48 hours post-transfection, with WT-synuclein; for Fold Change in Percent Synuclein Phosphorylation: relative to endogenous kinase (2.0%)
Protocol: HEK-293 naïve cells were transfected with an expression vector encoding PLK1, PLK2, PLK3, or PLK4 under the control of a CMV promoter, or empty vector, together with an expression vector encoding WT-synuclein. All vectors had the sequence coding for the protein of interest. Transfection was accomplished using Lipofectamine 2000 (Invitrogen, Carlsbad, Calif.) with 0.08 μg vector. Cells were washed and harvested 48 hours post-transfection. A Micro BCA (Pierce) total protein assay and total synuclein and phospho-synuclein ELISAs were performed on each plate of treated cells.

| Molecule | Proportion of total synuclein that is phoshorylated at ser-129 [%] | Fold Change in Percent Synuclein Phosphorylation |
| --- | --- | --- |
| B1 | 42.3 | 21.2 |
| B2 | 79.2 | 39.6 |
| B3 | 1.9 | 1.0 |
